The record followed here is patent publication US20250242062A1 (VANDERBILT UNIVERSITY, published 2025).

In experiment [1] the target is T1, murine COX-2 (mCOX-2) enzyme (murine, UniProt Q05769 18-604).
T1 construct: also called apo mCOX-2; mouse COX-2
T1 sequence (looked up): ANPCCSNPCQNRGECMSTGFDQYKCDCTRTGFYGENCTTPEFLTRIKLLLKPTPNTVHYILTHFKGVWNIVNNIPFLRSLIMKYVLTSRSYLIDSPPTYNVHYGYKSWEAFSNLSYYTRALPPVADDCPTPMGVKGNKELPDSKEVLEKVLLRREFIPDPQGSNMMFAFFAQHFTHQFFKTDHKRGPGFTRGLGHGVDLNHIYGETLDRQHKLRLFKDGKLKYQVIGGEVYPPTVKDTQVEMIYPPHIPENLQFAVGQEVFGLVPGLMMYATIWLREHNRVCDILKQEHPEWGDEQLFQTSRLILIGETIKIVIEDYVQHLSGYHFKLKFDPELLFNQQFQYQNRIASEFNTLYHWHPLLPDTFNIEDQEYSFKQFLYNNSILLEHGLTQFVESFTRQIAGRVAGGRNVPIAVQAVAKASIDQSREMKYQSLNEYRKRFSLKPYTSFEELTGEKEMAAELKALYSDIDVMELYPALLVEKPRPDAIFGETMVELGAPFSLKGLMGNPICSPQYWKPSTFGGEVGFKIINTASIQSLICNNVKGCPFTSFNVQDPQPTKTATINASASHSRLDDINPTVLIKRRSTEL
Nature of the experiment: microscale thermophoresis (MST), apo mCOX-2; apo mCOX-2 as target. As to the method:
The dissociation constant of A7 and F9 nanobodies while bound to apo mCOX-2 was evaluated by a microscale thermophoresis (MST) assay (Bartoschik, T, et al. Sci Rep 2018 8:4977). […] Further, the COX-2 inhibitory activity of A7 and F9 nanobodies was evaluated in the production of prostaglandin E2 (PGE2) and prostaglandin D2 (PGD2) using arachidonic acid (AA) as a substrate. In this assay, purified mouse COX-2 expressed in baculovirus-infected Sf9 cells was used. Purified COX-2 was incubated with varying concentrations of test nanobodies followed by the addition of hematin and AA, respectively. The PGE2 and PGD2 products in the reaction was quantified by a tandem liquid chromatography mass spectroscopy (LC-MS/MS) analysis.

The target of experiment [2] is T1, murine COX-2 (mCOX-2) enzyme. Nature of the experiment: cell-based or functional assay.

B1: A7 nanobody (VHH)
VHH: QVQLQESGGGLVQPGGSLKLSCAASGSIFSINVMGWYRQAPGKQRELVATITSGGTTNYADSVKGRFTISRDNAKDTLYLQMNSLKPEDTAVYYCNAKDLGGSSWFSEFDYWGQGTQVTVGP
notes: Alpaca-derived VHH expressed in E. coli and purified by SEC; The stated molecular weight is 15.24 kDa; also called native A7 nanobody clone
Molecule B1 had a dissociation constant (Kd) in experiment [1] of 2.4 nM. The “IC50, inhibition of PGE2 and PGD2 production from arachidonic acid by purified mouse COX-2 (LC-MS/MS)” value in experiment [2] is 6.8 nM.
